According to patent US20240190947A1 (BIO TECHNE, published 2024):

Molecular target: T1, SARS-CoV-2 S1 RBD His-tagged protein (SARS-CoV-2, UniProt P0DTC2 319-541)
T1 construct: domain: S1 RBD; also called rSARS-CoV-2 S1 RBD; SARS-CoV2 RBD
Assay: direct ELISA, HEK293 transfection medium

B1: 70009-2 VHH clone (VHH)
VHH: QLQLVESGGGLVQPGGSLRLSCAASTLTLNSYAIGWFRQAPGKEREAVSCTSSSGDMTYYTNSVKGRFTISRDNAKNTVYLQMSRLKPDDTAVYYCAAVLLEYGYVCSHPNEYDYWGQGTQVTVSS
binding result: binds
